Data taken from patent US20060026702A1, “Phosphoinositide 3-kinase mediated inhibition of GPCRs” (DUKE UNIVERSITY, priority 2002, published 2006).

Columns and labels:
β-arrestin2-GFP = β-arrestin2-GFP recruitment to the membrane by confocal microscopy; assay type: cell-based; settings: isoproterenol; co-expressed mutant protein
Description: Confocal Microscopy—Confocal microscopy was performed as previously described. […] Cells were split into 35 mm^2 dishes with glass bottoms for observation using a Zeiss LSM-510 confocal microscope. […] For analyses of the HEAT domain, HEK 293 cells were transfected with the plasmids containing cDNAs encoding either the β2AR-YFP (2 μg) or β2AR-YFP (2 μg) and HEAT domain (4 μg). Cells were plated onto glass bottom dishes for observation in the confocal microscope. […] Cells were permeablized with 0.1% Triton X-100 in phosphate-buffered saline for 20 min, incubated in 1% BSA in phosphate-buffered saline for 1 hr. Cells were washed with 1× phosphate-buffered saline and incubated with anti-HA or anti-FLAG monoclonal antibody (1:250) with 1% BSA in 1× phosphate-buffered saline for 1 hr. Cells were washed and incubated with goat anti-mouse IgG conjugated with Texas Red (1:500) (Molecular Probes) for 1 hr. Samples were visualized using single sequential line excitation filters at 488 and 568 nm and emission filter sets at 505-550 nm for GFP detection and 585 for Texas Red detection.
To exclude these possibilities cells were co-transfected with plasmids containing FLAG β2AR, β-arrestin2-GFP and either PI3Kγ or ΔPI3Kγ cDNAs, and were monitored for the recruitment of β-arrestin2-GFP using confocal microscopy. […] Marked redistribution of β-arrestin2-GFP to the membrane occurred within 2.5 minutes. […]

βARK1/PI3K interaction = biological target: T1, βARK1/PI3K interaction (Bos taurus, UniProt P21146); test: βARK1 associated PI3K activity in HEK 293 cells co-transfected with HEAT or PI3KΔHEAT; assay type: cell-based
T1 construct: recognizes both full length βARK1 and the βARKct; expressed in transfected cells; host or cells: HEK 293
T1 sequence (P21146 1-689): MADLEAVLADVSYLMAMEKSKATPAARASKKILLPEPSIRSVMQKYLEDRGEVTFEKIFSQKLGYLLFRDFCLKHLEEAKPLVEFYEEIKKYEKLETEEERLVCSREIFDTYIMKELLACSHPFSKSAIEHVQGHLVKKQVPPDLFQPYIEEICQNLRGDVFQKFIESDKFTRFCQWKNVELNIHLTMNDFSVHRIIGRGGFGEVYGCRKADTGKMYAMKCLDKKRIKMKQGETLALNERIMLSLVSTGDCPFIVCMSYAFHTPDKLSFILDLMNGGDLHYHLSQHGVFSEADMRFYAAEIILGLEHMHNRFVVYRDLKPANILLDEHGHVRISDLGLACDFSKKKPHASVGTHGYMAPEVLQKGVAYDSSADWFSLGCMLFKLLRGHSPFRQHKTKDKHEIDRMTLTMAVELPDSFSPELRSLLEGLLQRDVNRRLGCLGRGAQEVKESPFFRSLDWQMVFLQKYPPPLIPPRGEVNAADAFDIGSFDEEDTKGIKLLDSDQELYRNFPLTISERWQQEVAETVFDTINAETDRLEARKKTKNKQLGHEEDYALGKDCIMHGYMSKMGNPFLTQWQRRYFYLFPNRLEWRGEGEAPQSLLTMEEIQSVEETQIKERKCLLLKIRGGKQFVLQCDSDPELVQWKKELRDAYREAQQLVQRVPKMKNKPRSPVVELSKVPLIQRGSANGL
Description: The present inventors determined that overexpression of the 197 amino acid HEAT domain of PI3K competed for endogenous PI3K binding to βARK1 in living cells. HEK 293 cells were co-transfected with plasmids containing the βARK1 cDNA (2 μg) and increasing concentrations of the HEAT domain cDNA (ranging from 0 to 6 μg). […] The maximal reduction of βARK1 associated PI3K activity occurred when cells were co-transfected with 4 μg of HEAT cDNA (FIG. 9B). Summary results of n=5 experiments. *, p<0.0005. The data was normalized to βARK1 associated PI3K activity in cells transfected with βARK1 only. Furthermore, FLAG tagged HEAT protein co-immunoprecipitated with βARK1 monoclonal antibodies in the co-transfected HEK 293 cells.
The absence of the HEAT domain in an otherwise intact PI3K molecule affected the association of βARK1 with endogenous PI3K in cells. HEK 293 cells were co-transfected with plasmids containing cDNAs for βARK1 (2 μg), βARK1 plus HEAT (4 μg), and βARK1 plus PI3KΔHEAT (4 μg). Cell lysates were immunoprecipitated with a βARK1 monoclonal antibody and assayed for the associated PI3K activity. Expression of PI3KΔHEAT had no effect on the endogenous βARK1/PI3K interaction, whereas overexpression of HEAT abolished this interaction (FIGS. 9C and 9D). […] The data was normalized to βARK1 associated PI3K activity in cells transfected with βARK1 only.
Cytosolic and membrane fractions were prepared and analyzed for βARK1 associated PI3K activity. […] Membrane fractions were prepared from the HEK293 cells co-transfected with the βARK1 (2 μg), βARK1 and HEAT domain (4 μg) containing plasmids.

B1: HEAT: 197 amino acid HEAT domain of PI3Kγ, FLAG epitope-tagged (SEQ ID NO: 2), overexpressed in cells (protein, listed as Homo sapiens)
chain: MDYKDDDDKHPIALPKHQPTPDDRVRAEMPNQLRKQLEAIIATDTAEDKELLWHFRYESLKHPKAYPKLFSSVKWGQQEIVAKTYQLLARREVWDQSALDVGLTMQLLDCNFSDENVRAIAVQKLESLEDDDVLHYLLQLVQAVKFEPYHDSALARFLLKRGLRNKRIGHFLFWFLRSEIAQSRHYQQRFAVILEAYLRGCGTA
modifications: FLAG tag
recruitment of β-arrestin2-GFP to the receptor/membrane after agonist (β-arrestin2-GFP): did not affect | endogenous βARK1/PI3K interaction (βARK1/PI3K interaction; 4 μg cDNA co-transfected with βARK1): abolished | agonist-induced translocation of PI3K to the membrane (βARK1/PI3K interaction; 10 μM isoproterenol 2 min, HEAT 4 μg): effectively abolished | βARK1 associated PI3K activity with increasing HEAT cDNA (βARK1/PI3K interaction; HEAT cDNA 0 to 6 μg): effectively competed away
